Experiments:
[1] = molecular target: T1, CM244 gp120 (HIV-1 isolate CM244 (CRF01_AE; printed …, UniProt Q4QX31, strain); assay: flow cytometry on cells; blocking format: HmAb64 added to biotinylated gp120 in the staining of primary human CD4+ T cells; loss of gp120 staining read out (2, 4, 8 ug HmAb64 with 2 ug ADA gp120 in panel b); details: both partners purified
T1 construct: also called CM244 (AE); CM224

[2] = molecular target: T2, AD8 gp120 (HIV-1 subtype B, AD8, UniProt O40222, strain); assay: as above; details: both partners purified
T2 construct: also called AD8 (B)

[3] = molecular target: T3, MW959 gp120 (HIV-1 subtype C, 93MW959 (isolate 959 …, strain)); assay: as above; details: both partners purified
T3 construct: also called MW959 (C)

[4] = molecular target: T4, SF162 gp120 (HIV-1 (SF162), UniProt P19550); assay: as above; details: both partners purified
T4 construct: also called SF162 (B)

[5] = molecular target: T5, HIV-1 SF162 Env on infected human CD4+ T cells (HIV-1 isolate SF162, UniProt P19550, strain); assay: flow cytometry on cells; primary human CD4+ T cells infected with HIV SF162 for 3 days, stained with HmAb64 (2 ug), goat anti-human-PE; details: one partner purified
T5 construct: also called HIV-1 SF162 infected CD4+ T cells; source: primary human CD4+ T cells infected with HIV SF162, on the cell surface

[6] = molecular target: gp120 Czm (clade C, 96ZM652) (HIV-1 subtype C, named 96ZM652; entry …, strain); assay: ELISA; HmAb64 on gp120, gp120-Core or their D368R mutant protein, as previously described; details: both partners purified
[7] = molecular target: gp120 A2 (clade A, 92UG037.8) (HIV-1 isolate 92UG037.8 (clade A), UniProt Q70200, strain); assay: as above; details: both partners purified
[8] = molecular target: T6, wild-type gp120 Env protein, HIV-1 isolate YU2 (HIV-1 isolate YU2, UniProt P35961); assay: as above; details: both partners purified
T6 construct: also called YU2 gp120

[9] = molecular target: T7, wild-type gp120 Env protein, HIV-1 isolate JR-FL (HIV-1 isolate JR-FL, UniProt Q75760, strain); assay: as above; details: both partners purified
T7 construct: also called JR-FL gp120

[10] = molecular target: A244 gp120 (HIV-1 isolate A244); assay: SPR; Biacore 3000, CM4 or CM5 chip; gp120 or BG505-SOSIP immobilised by amine coupling to about 750 RU; HBS pH 7.4, 3 mM EDTA, 0.005% Tween-20, 0.05% carboxymethyl-dextran; 25 ul/min, 25 C; details: both partners purified
[11] = molecular target: T8, biotinylated gp120 of HIV-1 CM244 (HIV-1 isolate CM244 (CRF01_AE; printed …, UniProt Q4QX31, strain); assay: flow cytometry on cells; HmAb64 added to biotinylated gp120 and read by the loss of gp120 staining of primary CD4+ T cells; details: both partners purified
T8 construct: also called CM224 (as printed in the methods)

[12] = molecular target: biotinylated gp120 of HIV-1 SF162 (HIV-1 isolate SF162, UniProt P19550, strain); assay: as above; details: both partners purified

Measured: binding result

B1: HmAb64 (antibody, V domains shown)
VH: QVQLVQSGAEVKKPGASVKVSCKASGYTFTSYDITWVRQAPGQGLEWMGWISAYNGDTNYAQRLQGRVTMTTDTSTSTAYMELRSLRSDDTAVYYCARAKHTVLVTAMRWFDPWGQGTLVTVSS
VL: DIQMTQSPSSLSASVGDRVTITCRASQSISNYLNWYQQKPGKAPKLLISATSSLQSGVPSRFSGSGSGTDFTLTISSLQPDDFATYYCQQSYSTPWTFGQGTKLEIK
notes: also called HmAb64 mAb; source: Freestyle 293F cells, transfected, purified (Protein A HP columns)
binds: [1] | [2] | [3] | [4]

B2: HmAb64 (antibody, V domains shown)
VH: B1 VH
VL: B1 VL
notes: also called human IgG (HmAb64); clone #64; source: Freestyle 293F cells, transfected (mAb64-HC/pJW4303 and mAb64-KC/pJW4303), purified from supernatant (Protein A)
binds: [5] | [6] | [7] | [8] | [9] | [10] | [11] | [12]

— paper PMC11109196 (Nature Communications, 2024)
